The results in this text go back to patent publication US20100003195A1.

Bridge positions count the residues as written; N and C are the ends.

Experiment [1] has as its target KDR on KDR-transfected 293H cells (human), P35968. The experiment in a line: competitor 125I-VEGF (300 pM), KDR-transfected 293H cells, peptide 30 µM. To be noted: remark: other sources report otherwise.
Experiment [2] shares this target. Description: competitor 125I-VEGF (300 pM), KDR-transfected 293H cells, peptide 0.3 µM. Particulars: remark: other sources report otherwise.

Take Ac-AGPKWCEEDWYYCMITGTGGGK-NH2 (disulfide 6-13 (inferred); also: fluorescein on C-terminal Lys in FP only) [SEQ ID NO:264]: the figures for the % inhibition of 125I-labeled VEGF binding in experiment [1] and in experiment [2] were 48% and 24.4%, respectively.
